The text below walks through data of publication PMC10855774, “Role of Spexin in White Adipose Tissue Thermogenesis under Basal and Cold-Stimulated Conditions” (International Journal of Molecular Sciences, 2024).

Assay [1] in a line: Liver Tg content. Type of assay: in vivo, mice. Conditions: SPX 29 µg/kg/day ten days. The protocol:
Liver tissue (50 mg) was homogenized in a 5% solution of 500 µL Triton X-100 in PBS. The homogenate was incubated at 80–100 °C for 5 min and centrifuged at 10,000× g for 10 min. The Tg levels were measured in the supernatants using a commercial kit (Wiener Lab., Rosario, Argentina).

Assay [2] concerns ucp1. Nature of the assay: UCP1 protein expression in EAT and IAT (Western blot). Type of assay: in vivo, mice. The protocol:
(§1) Normal adult male C57BL/6 mice (four months of age) were kept in a temperature-controlled environment (20–22 °C and a fixed 12 h light/12 h dark cycle; lights on at 07:00 h) and fed ad libitum with Purina commercial rat/mouse chow (Ganave, Buenos Aires, Argentina, L0723/1). Mice were injected with SPX or PBS (29 µg/kg/day, Tocris, Bristol, UK) for ten days (the SPX and CTR groups, respectively). On the third day of the protocol, each group was subdivided into two other groups: one exposed to cold (4 °C, CTR-C and SPX-C, n = 12 mice for each group) and another one housed at RT (CTR and SPX, n = 15 mice for each group) (Figure 1). Food intake and body weight were measured every day. On the experimental day (day 10), the mice were euthanized under non-fasting conditions (08:00 to 09:00 h), and their trunk blood was collected; plasma samples were then frozen (–80 °C) until the metabolite measurement. […]
For protein analysis by Western blot, IAT and EAT were lysed in a RIPA buffer supplemented with a protease and phosphatase inhibitor cocktail. Protein contents were quantified with the bicinchoninic acid method (Thermo Scientific, Pierce™ BCA Protein Assay Kit). […] Finally, relative protein levels were calculated using Image J Fiji software 1.54f.

The subject of assay [3] is ucp1. The assay can be described thus: UCP1 immunohistochemistry of EAT and IAT. Type of assay: in vivo, mice. The note with it: SPX groups vs. CTR groups; representative of three experiments. The protocol: as §1, with “measurement. Inguinal AT (IAT, subcutaneous depot), epididymal AT (EAT, visceral depot), and brown AT (BAT, subcutaneous depot) were aseptically dissected and weighed. These depots were kept at –80 °C for further procedures. Animals were euthanized according to protocols for animal use, in agreement with the NIH guidelines for the care and use of experimental animals. All experiments were approved by our Institutional Animal Care Committee (Approval code: 6NE-2023).” for “measurement.”

Assay [4] relates to mitochondrial DNA. The assay can be described thus: Mitochondrial DNA content quantification (qPCR). Type of assay: in vivo, mice. The protocol: as §1
Tissue from the EAT and IAT depots were homogenized with lysis buffer (40 mM EDTA, 50 mM NaCl, 100 mM Tris, 0.2% SDS) in PBS (2:1) and, for DNA fragmentation, samples were sonicated (38 kHz ± 10% for 5–10 s). […] Finally, the DNA was dissolved in TE buffer and quantified by Nanodrop at 260 nm. […] The relative changes in the DNA mitochondrial content were calculated by 2[2, −ΔΔCt] […]

Assay [5] concerns 3T3-L1 adipocytes. The note with it: in vitro; cited from earlier work. An excerpt: (§2) Beige adipocytes may be generated through two different mechanisms: adipogenesis, de novo, from precursor stem cells, and the transdifferentiation process, which involves the conversion/reprogramming of white adipocytes. Regarding the former, different studies have shown the presence of different adipocyte precursors that have different thermogenic capacities when differentiated in vitro [22]. Other studies have observed that PDGFRα+ cells are bipotential precursors, being able to differentiate into either white or beige adipocytes depending on the stimulus. Then, only PDGFRα+ and EBF2+ cell ...

Assay [6] concerns preadipocytes. Conditions: cited from earlier work.
Text: as §2

B1: Spexin (peptide, UniProt Q9BT56 27-116, looked up)
Spexin: APQRLLERRNWTPQAMLYLKGAQGRRFISDQSRRKDLSDRPLPERRSPNPQLLTIPEAATILLASLQKSPEDEEKNFDQTRFLEDSLLNW
modifications: Spexin
notes: novel adipokine, a peptide of 14 amino acids of the galanin family; purchased from Tocris
Turning to B1, the “liver Tg content, SPX-C vs. CTR-C” value in assay [1] (cold (4 °C), C × S p < 0.001, p < 0.001 vs. CTR-C) is “CTR-C mice had higher Tg levels than CTR (p < 0.01) and SPX-C (p < 0.001) mice”. Besides, the “liver Tg content, SPX-C vs. SPX” value in assay [1] (cold vs. RT) is listed as “lower Tg levels than SPX mice”. For the same molecule, the “UCP1 protein levels in EAT (Western blot)” value in assay [2] (basal and cold conditions, p < 0.05, n = 4–6) was “reduced the UCP1 protein levels at both basal and cold conditions”. In assay [2] (cold, SPX-C intermediate between CTR and CTR-C, C × S p < 0.05), the “UCP1 protein levels in IAT (Western blot)” value was “partial decrease in UCP1 levels”. Also, the “UCP1 expression by immunohistochemistry, EAT and IAT” value in assay [3] is reported as “lower than in the CTR groups”. Further, the “mitDNA content in EAT” value in assay [4] (RT and cold) was “no changes”. For the same molecule, in assay [4] (cold, SPX-C intermediate between CTR and CTR-C, C × S p < 0.01), the “mitDNA content in IAT” value is “partial inhibition, although no significant differences were found”. Further, the “terminal differentiation of white 3T3-L1 adipocytes” value in assay [5] is reported as “inhibits”. For the same molecule, in assay [6], the “viability or proliferation of preadipocytes” value was “does not affect”.
